# Patent publication US20200283478A1 (Genentech, published 2020)
# Read-outs that look alike come from different tables or passages of the source. Bridge positions count the residues as written; N and C are the ends. Square brackets hold non-standard residues; d marks the D form. Ends that are not written are not given here. hArg = N=C(N)NCCCC[C@H](N)C(=O)O
# B1: K9gvpep4 (peptide)
# peptide: SGCRLPWNLQRIGLPC
# modifications: not fully specified (bridges); cysteine pairing not given here
# notes: synthetic; Compound 19 = Pep2-8_K9gvpep4, the two N-terminal residues of K9gvpep4 being the SG of the GSG linker
# B2: Compound 231: Ac-ESYPGWNLV(homoR)IGLLR-NH2 (peptide)
# peptide: Ac-ESYPGWNLV[hArg]IGLLR-NH2
# SMILES: CC[C@H](C)[C@H](NC(=O)[C@H](CCCCNC(=N)N)NC(=O)[C@@H](NC(=O)[C@H](CC(C)C)NC(=O)[C@H](CC(N)=O)NC(=O)[C@H](Cc1c[nH]c2ccccc12)NC(=O)CNC(=O)[C@@H]1CCCN1C(=O)[C@H](Cc1ccc(O)cc1)NC(=O)[C@H](CO)NC(=O)[C@H](CCC(=O)O)NC(C)=O)C(C)C)C(=O)NCC(=O)N[C@@H](CC(C)C)C(=O)N[C@@H](CC(C)C)C(=O)N[C@@H](CCCNC(=N)N)C(N)=O
# B3: Compound 230: Ac-DSYPGWNLV(homoR)IGLLR-NH2 (peptide)
# peptide: Ac-DSYPGWNLV[hArg]IGLLR-NH2
# SMILES: CC[C@H](C)[C@H](NC(=O)[C@H](CCCCNC(=N)N)NC(=O)[C@@H](NC(=O)[C@H](CC(C)C)NC(=O)[C@H](CC(N)=O)NC(=O)[C@H](Cc1c[nH]c2ccccc12)NC(=O)CNC(=O)[C@@H]1CCCN1C(=O)[C@H](Cc1ccc(O)cc1)NC(=O)[C@H](CO)NC(=O)[C@H](CC(=O)O)NC(C)=O)C(C)C)C(=O)NCC(=O)N[C@@H](CC(C)C)C(=O)N[C@@H](CC(C)C)C(=O)N[C@@H](CCCNC(=N)N)C(N)=O
# B4: Compound 227: Ac-ESFPGWNLV(homoR)IGLLR-NH2 (peptide)
# peptide: Ac-ESFPGWNLV[hArg]IGLLR-NH2
# SMILES: CC[C@H](C)[C@H](NC(=O)[C@H](CCCCNC(=N)N)NC(=O)[C@@H](NC(=O)[C@H](CC(C)C)NC(=O)[C@H](CC(N)=O)NC(=O)[C@H](Cc1c[nH]c2ccccc12)NC(=O)CNC(=O)[C@@H]1CCCN1C(=O)[C@H](Cc1ccccc1)NC(=O)[C@H](CO)NC(=O)[C@H](CCC(=O)O)NC(C)=O)C(C)C)C(=O)NCC(=O)N[C@@H](CC(C)C)C(=O)N[C@@H](CC(C)C)C(=O)N[C@@H](CCCNC(=N)N)C(N)=O
# B5: Compound 20 (peptide)
# peptide: Ac-TVFTSWEEYLDWVGSGDLMPWNLVRIGLLR-NH2
# notes: also called Pep2-8p7; Pep2-8_K9gvpep7
# B6: Compound 228: Ac-SFAFPGWNLV(homoR)IGLLR-NH2 (peptide)
# peptide: Ac-SFAFPGWNLV[hArg]IGLLR-NH2
# SMILES: CC[C@H](C)[C@H](NC(=O)[C@H](CCCCNC(=N)N)NC(=O)[C@@H](NC(=O)[C@H](CC(C)C)NC(=O)[C@H](CC(N)=O)NC(=O)[C@H](Cc1c[nH]c2ccccc12)NC(=O)CNC(=O)[C@@H]1CCCN1C(=O)[C@H](Cc1ccccc1)NC(=O)[C@H](C)NC(=O)[C@H](Cc1ccccc1)NC(=O)[C@H](CO)NC(C)=O)C(C)C)C(=O)NCC(=O)N[C@@H](CC(C)C)C(=O)N[C@@H](CC(C)C)C(=O)N[C@@H](CCCNC(=N)N)C(N)=O
# B7: SEQ ID NO 308 (peptide)
# peptide: TAFTSWEEYLDWVGSGVLWNHSRI
# B8: Compound 19 (peptide)
# peptide: Ac-TVFTSWEEYLDWVGSGCRLPWNLQRIGLPC-NH2
# modifications: disulfide 17-30 (inferred)
# notes: Two Cys, disulfide-cyclized; also called Pep2-8p4; Pep2-8_K9gvpep4
# B9: Compound 28 (peptide)
# peptide: SGDLMPWNLVRIGLLR
# notes: Free N- and C-termini as printed
# B10: Compound 23 (peptide)
# peptide: Ac-SPCRVGYTPC-NH2
# modifications: disulfide 3-10
# SMILES: CC(=O)N[C@@H](CO)C(=O)N1CCC[C@H]1C(=O)N[C@H]1CSSC[C@@H](C(N)=O)NC(=O)[C@@H]2CCCN2C(=O)[C@H]([C@@H](C)O)NC(=O)[C@H](Cc2ccc(O)cc2)NC(=O)CNC(=O)[C@H](C(C)C)NC(=O)[C@H](CCCNC(=N)N)NC1=O
# notes: Two Cys
# B11: Compound 20 (peptide)
# peptide: Ac-TVFTSWEEYLDWVGSGDLMPWNLVRIGLLR-NH2
# notes: as for B5
# B12: Compound 192: Ac-WNLV(homoR)IGLLR-NH2 (peptide)
# peptide: Ac-WNLV[hArg]IGLLR-NH2
# B13: K9gvpep7 (peptide)
# peptide: SGDLMPWNLVRIGLLR
# notes: synthetic; Compound 20 = Pep2-8_K9gvpep7
# B14: Compound 229: Ac-MESFPGWNLV(homoR)IGLLR-NH2 (peptide)
# peptide: Ac-MESFPGWNLV[hArg]IGLLR-NH2
# SMILES: CC[C@H](C)[C@H](NC(=O)[C@H](CCCCNC(=N)N)NC(=O)[C@@H](NC(=O)[C@H](CC(C)C)NC(=O)[C@H](CC(N)=O)NC(=O)[C@H](Cc1c[nH]c2ccccc12)NC(=O)CNC(=O)[C@@H]1CCCN1C(=O)[C@H](Cc1ccccc1)NC(=O)[C@H](CO)NC(=O)[C@H](CCC(=O)O)NC(=O)[C@H](CCSC)NC(C)=O)C(C)C)C(=O)NCC(=O)N[C@@H](CC(C)C)C(=O)N[C@@H](CC(C)C)C(=O)N[C@@H](CCCNC(=N)N)C(N)=O
# B15: Compound 26 (peptide)
# peptide: H-SGCFIPWNLQRIGLLC-NH2
# modifications: disulfide 3-16 (inferred)
# notes: Two Cys, disulfide-cyclized
# Legend:
# PCSK9Δhelix [1] = target: T1, PCSK9Δhelix (human, Chemically biotinylated in the phage ELISAs; the site is not given.); experiment: phage competition ELISA: synthetic peptide against its phage-displayed counterpart
# T1 construct: construct M1-Q692 with engineered TEV site, cleaved by TEV; also called His-PCSK9Δhelix; open groove PCSK9Δhelix
# T1 sequence (prodomain, as listed by the source mutant limits assumed, chain 1 of 2): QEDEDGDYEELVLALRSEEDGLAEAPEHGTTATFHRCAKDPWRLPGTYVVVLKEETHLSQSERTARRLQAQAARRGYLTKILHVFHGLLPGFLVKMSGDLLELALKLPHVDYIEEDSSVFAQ
# T1 sequence (chain, as listed by the source mutant limits assumed, chain 2 of 2): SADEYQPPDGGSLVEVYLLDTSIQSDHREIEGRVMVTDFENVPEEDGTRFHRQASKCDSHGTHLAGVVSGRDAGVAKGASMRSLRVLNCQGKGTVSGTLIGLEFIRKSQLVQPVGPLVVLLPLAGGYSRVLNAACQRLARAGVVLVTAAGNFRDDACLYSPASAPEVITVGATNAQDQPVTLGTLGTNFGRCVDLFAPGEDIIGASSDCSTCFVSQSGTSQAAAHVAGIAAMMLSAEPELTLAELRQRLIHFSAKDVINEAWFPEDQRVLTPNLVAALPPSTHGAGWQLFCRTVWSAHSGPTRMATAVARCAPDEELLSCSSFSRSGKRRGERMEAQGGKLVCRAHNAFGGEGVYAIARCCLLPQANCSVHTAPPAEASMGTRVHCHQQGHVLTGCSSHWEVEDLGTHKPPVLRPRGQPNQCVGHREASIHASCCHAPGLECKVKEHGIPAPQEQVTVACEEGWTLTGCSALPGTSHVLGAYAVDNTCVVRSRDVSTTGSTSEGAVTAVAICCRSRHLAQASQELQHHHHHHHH
# [2] = target: T2, His-tagged, full-length human PCSK9 (proprotein convertase subtilisin/kexin type 9) (human, UniProt A8T644 31-152; Q8NBP7 153-692); experiment: TR-FRET competition; His-PCSK9 with EGF(A)-Fc as competitor ligand
# T2 construct: also called His-PCSK9; C-terminal (His)8-tagged PCSK9
# T2 sequence (A8T644 31-152, chain 1 of 2): as the sequence (prodomain, as listed by the source mutant limits assumed, chain 1 of 2) above
# T2 sequence (A8T644 other isoform, or with tags, fused parts or gaps, chain 2 of 2): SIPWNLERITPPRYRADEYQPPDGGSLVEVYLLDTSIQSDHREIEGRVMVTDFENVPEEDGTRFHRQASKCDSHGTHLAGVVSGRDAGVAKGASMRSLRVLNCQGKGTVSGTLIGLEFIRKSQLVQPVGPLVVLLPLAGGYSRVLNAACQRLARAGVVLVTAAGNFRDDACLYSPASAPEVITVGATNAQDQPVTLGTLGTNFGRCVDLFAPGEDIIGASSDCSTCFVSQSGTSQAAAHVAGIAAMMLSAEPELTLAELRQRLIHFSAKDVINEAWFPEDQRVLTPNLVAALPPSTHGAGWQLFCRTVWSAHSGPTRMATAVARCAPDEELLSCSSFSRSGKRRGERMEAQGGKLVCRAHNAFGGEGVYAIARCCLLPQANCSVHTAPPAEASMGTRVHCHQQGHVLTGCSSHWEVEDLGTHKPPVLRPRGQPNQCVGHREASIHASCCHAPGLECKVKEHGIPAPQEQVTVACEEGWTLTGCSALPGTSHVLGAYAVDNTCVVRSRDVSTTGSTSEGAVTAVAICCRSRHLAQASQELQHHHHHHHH
# [3] = target: T3, PCSK9Δhelix (human PCSK9 lacking the P' helix, His-tagged) (human, UniProt Q8NBP7 31-152; Q8NBP7 168-692); experiment: TR-FRET competition; His-PCSK9Δhelix with Ab20 as competitor ligand
# T3 construct: Construct M1-Q692 with an engineered TEV site (Y166 and R167 deleted, ENLYFQS inserted between R165 and A168); also called His-PCSK9Δhelix; C-terminal (His)8-tagged PCSK9Δhelix
# T3 sequence (Q8NBP7 31-152, stated change not applied, chain 1 of 2): as the sequence (prodomain, as listed by the source mutant limits assumed, chain 1 of 2) above
# T3 sequence (Q8NBP7 other isoform, or with tags, fused parts or gaps mutant, chain 2 of 2): as the sequence (chain, as listed by the source mutant limits assumed, chain 2 of 2) above
# [4] = target: T2, His-tagged, full-length human PCSK9 …; experiment: TR-FRET competition; His-PCSK9 with LDLR-Fc as competitor ligand
# PCSK9Δhelix [5] = target: T1, PCSK9Δhelix; experiment: phage competition ELISA against phage-displayed Pep2-8 (Φpep2-8)
# PCSK9Δhelix [6] = target: T1, PCSK9Δhelix; experiment: phage competition ELISA against phage-displayed K9gvpep4 (ΦK9gvpep4)
# [7] = target: T4, proprotein convertase subtilisin/kexin type 9 (PCSK9) (human, UniProt Q8NBP7 31-692); experiment: phage spot ELISA; first of two rows with this extension
# T4 construct: His-tagged full-length PCSK9 in TR-FRET and SPR, biotinylated in phage ELISA; secreted protein is autoprocessed (prodomain plus catalytic/CRD chain starting at S153); also called rec.PCSK9; His-PCSK9
# T4 sequence (Q8NBP7 other isoform, or with tags, fused parts or gaps limits assumed): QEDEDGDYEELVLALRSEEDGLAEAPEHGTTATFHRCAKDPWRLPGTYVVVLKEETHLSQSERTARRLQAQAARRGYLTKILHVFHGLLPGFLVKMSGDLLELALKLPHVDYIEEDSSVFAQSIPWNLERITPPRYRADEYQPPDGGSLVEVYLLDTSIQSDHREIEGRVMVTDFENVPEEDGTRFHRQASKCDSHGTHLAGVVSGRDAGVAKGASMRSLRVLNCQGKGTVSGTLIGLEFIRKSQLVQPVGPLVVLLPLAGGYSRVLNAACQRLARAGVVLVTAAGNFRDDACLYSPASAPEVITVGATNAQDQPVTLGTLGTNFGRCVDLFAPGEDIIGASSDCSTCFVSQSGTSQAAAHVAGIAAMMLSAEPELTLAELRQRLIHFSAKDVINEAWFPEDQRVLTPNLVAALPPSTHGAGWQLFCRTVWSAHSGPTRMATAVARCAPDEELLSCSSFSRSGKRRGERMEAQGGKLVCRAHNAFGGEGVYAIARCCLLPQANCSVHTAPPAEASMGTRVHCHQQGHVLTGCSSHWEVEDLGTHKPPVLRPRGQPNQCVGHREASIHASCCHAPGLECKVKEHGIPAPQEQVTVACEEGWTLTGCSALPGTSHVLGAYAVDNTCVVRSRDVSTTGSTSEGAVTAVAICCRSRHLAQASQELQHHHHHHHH
# PCSK9Δhelix [8] = target: T1, PCSK9Δhelix; experiment: as above
# [9] = target: T4, proprotein convertase subtilisin/kexin …; experiment: phage spot ELISA; second of two rows with this extension
# PCSK9Δhelix [10] = target: T1, PCSK9Δhelix; experiment: as above
# [11] = target: T5, PCSK9 (proprotein convertase subtilisin/kexin type 9), His-tagged, full-length (human, UniProt Q8NBP7 31-692); experiment: SPR, Method 1 (Biacore T100, His-tagged target captured on NTA chip)
# T5 construct: Captured by the His tag (SPR Methods 1 and 2), amine-coupled (Method 3), or His-tagged in TR-FRET; also called His-PCSK9
# T5 sequence (Q8NBP7 31-692 limits assumed): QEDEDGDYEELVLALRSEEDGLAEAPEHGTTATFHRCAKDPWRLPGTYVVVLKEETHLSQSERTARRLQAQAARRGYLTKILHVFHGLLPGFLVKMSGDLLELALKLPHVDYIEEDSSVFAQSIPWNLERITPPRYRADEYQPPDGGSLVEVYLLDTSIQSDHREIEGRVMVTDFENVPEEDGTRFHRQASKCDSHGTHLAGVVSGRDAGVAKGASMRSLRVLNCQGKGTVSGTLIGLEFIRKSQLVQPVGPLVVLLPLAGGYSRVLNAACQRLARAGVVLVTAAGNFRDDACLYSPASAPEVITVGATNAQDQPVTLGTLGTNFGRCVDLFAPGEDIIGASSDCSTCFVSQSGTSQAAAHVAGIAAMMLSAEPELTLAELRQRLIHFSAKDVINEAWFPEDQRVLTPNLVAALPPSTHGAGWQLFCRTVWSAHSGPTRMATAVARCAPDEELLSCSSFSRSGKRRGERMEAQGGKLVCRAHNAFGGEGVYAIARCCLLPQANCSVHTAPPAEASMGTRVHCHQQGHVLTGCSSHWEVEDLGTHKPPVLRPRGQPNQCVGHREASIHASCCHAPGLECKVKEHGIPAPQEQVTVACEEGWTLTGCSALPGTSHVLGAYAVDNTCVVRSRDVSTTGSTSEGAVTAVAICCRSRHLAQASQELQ
# PCSK9Δhelix [12] = target: T6, PCSK9Δhelix (human, UniProt Q8NBP7 31-152; Q8NBP7 168-692); experiment: as above
# T6 construct: Made by TEV cleavage of human PCSK9 M1-Q692 with an engineered TEV site; The new N-terminus of the catalytic domain is S-A168; also called His-PCSK9Δhelix; PCSK9 lacking the P' helix
# T6 sequence (Q8NBP7 31-152, stated change not applied, chain 1 of 2): as the sequence (prodomain, as listed by the source mutant limits assumed, chain 1 of 2) above
# T6 sequence (Q8NBP7 other isoform, or with tags, fused parts or gaps mutant, chain 2 of 2): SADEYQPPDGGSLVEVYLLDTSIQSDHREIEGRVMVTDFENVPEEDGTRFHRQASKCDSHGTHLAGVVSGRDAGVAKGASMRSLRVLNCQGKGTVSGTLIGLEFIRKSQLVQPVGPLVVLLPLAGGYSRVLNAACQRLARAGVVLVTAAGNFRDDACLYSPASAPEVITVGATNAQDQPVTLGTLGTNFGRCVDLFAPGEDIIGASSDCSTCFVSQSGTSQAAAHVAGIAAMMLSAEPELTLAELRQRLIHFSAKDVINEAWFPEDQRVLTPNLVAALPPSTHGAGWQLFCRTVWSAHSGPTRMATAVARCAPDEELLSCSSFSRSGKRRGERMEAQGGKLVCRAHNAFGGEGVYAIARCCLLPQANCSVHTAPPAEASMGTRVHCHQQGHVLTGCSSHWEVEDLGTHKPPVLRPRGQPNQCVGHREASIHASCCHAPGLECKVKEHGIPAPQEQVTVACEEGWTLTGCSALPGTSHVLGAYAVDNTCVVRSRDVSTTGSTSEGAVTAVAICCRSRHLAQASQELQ
# [13] = target: T5, PCSK9 (proprotein convertase …); experiment: TR-FRET competition; competitor EGF(A)-Fc binding to His-PCSK9
# PCSK9Δhelix [14] = target: T6, PCSK9Δhelix; experiment: TR-FRET competition; competitor Ab20 binding to His-PCSK9Δhelix
# [15] = target: T5, PCSK9 (proprotein convertase …); experiment: SPR, Method 2 (Biacore T100, NTA capture, single cycle kinetics)
# PCSK9Δhelix [16] = target: T6, PCSK9Δhelix; experiment: as above
# [17] = target: T5, PCSK9 (proprotein convertase …); experiment: TR-FRET competition; competitor EGF(A)-Fc binding to His-PCSK9; remark: listed apart in the source
# PCSK9Δhelix [18] = target: T6, PCSK9Δhelix; experiment: TR-FRET competition; competitor Ab20 binding to His-PCSK9Δhelix; remark: listed apart in the source
# [19] = target: T3, PCSK9Δhelix (human PCSK9 lacking the P' …); experiment: TR-FRET competition; His-PCSK9Δhelix with Ab20 as competitor ligand; remark: listed apart in the source
# [20] = target: T3, PCSK9Δhelix (human PCSK9 lacking the P' …); experiment: SPR (Biacore), His-tagged PCSK9Δhelix captured on NTA chip
binder,measurement,setting,value
B1,IC50,PCSK9Δhelix [1],0.544 µM
B2,IC50,[2],15.8 µM
same,IC50,[3],1.49 µM
same,IC50,[4],> 50 µM
B3,IC50,[2],24.2 µM
same,IC50,[3],2.42 µM
same,IC50,[4],> 50 µM
B4,IC50,[2],23.2 µM
same,IC50,[3],2.51 µM
same,IC50,[4],> 50 µM
B5,IC50,PCSK9Δhelix [5],0.00175 µM
same,IC50,PCSK9Δhelix [6],0.00599 µM
B6,IC50,[2],13.2 µM
same,IC50,[3],1.37 µM
same,IC50,[4],30.4 µM
B7,ELISA,[7],2.74
same,s/n ratio,[7],24.9
same,ELISA,PCSK9Δhelix [8],2.82
same,s/n ratio,PCSK9Δhelix [8],26.4
same,ELISA,[9],3
same,s/n ratio,[9],29.7
same,ELISA,PCSK9Δhelix [10],2.91
same,s/n ratio,PCSK9Δhelix [10],31.3
B8,Kd,[11],0.00207 µM
same,Kd,PCSK9Δhelix [12],0.0989 nM
same,IC50,[13],0.009 µM
same,IC50,PCSK9Δhelix [14],0.002 µM
B9,Kd,[11],46.1 µM
same,Kd,PCSK9Δhelix [12],856 nM
B10,Kd,[15],5.74 µM
same,Kd,PCSK9Δhelix [16],0.754 µM
B11,Kd,[11],0.00556 µM
same,Kd,PCSK9Δhelix [12],0.366 nM
same,IC50,[17],0.037 µM
same,IC50,PCSK9Δhelix [18],0.001 µM
B12,IC50,[2],> 50 µM
same,IC50,[3],5.55 µM
same,IC50,[19],5.6 µM
same,IC50,[4],> 50 µM
same,Kd,[20],1 µM
B13,IC50,PCSK9Δhelix [1],0.914 µM
B14,IC50,[2],8.3 µM
same,IC50,[3],0.84 µM
same,IC50,[4],25 µM
B15,Kd,[11],29 µM
same,Kd,PCSK9Δhelix [12],802 nM
